Substitutions are numbered along the chain they refer to. Values belong to the binder of their own block, whether it stands above or below them.
How the values were obtained:
[1] = target: T1, monkey GPC3 on HEK293T-monkey GPC3 cells (monkey); assay: FACS on HEK293T-monkey GPC3 cells;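 further: flow cytometry binding of test antibodies to the cells, read as mean fluorescence intensity, with half-maximal concentration taken from fitted curves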
T1 construct: whole, on cells
Protocol: The desired cells were expanded to a logarithmic growth phase in a T-75 cell culture flask, the medium was removed by pipetting, and the cells were washed twice with a PBS buffer, and digested with trypsin. Then a complete medium was added to stop the digestion, and the cells were blown into a single cell suspension. After counting, the cells were centrifuged, and the cell pellet was resuspended with an FACS buffer (PBS+2% fetal bovine serum) to 2×10⁶ cells/mL. The cell resuspension solution was added to a 96-well FACS reaction plate at 50 μl/well, and a chimeric antibody sample to be tested was added at 50 μl/well for incubation at 4° C. for 1 h. […] After the plate was centrifuged and washed 3 times with a PBS buffer, 100 μl of the resulting solution was assayed and analyzed by FACS (FACS Canto™, purchased from BD Biosciences). Data analysis was performed by software (FlowJo) to obtain the mean fluorescence intensity (MFI) of the cells. Then, analysis was performed by software (GraphPad Prism8), data were fitted, and EC₅₀ values were calculated.

monkey GPC3-His protein [2] = target: T2, monkey GPC3-His protein (monkey); assay: ELISA, monkey GPC3-His coated;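 further: Plate-coated antigen at 1 µg/mL, antibody binding 2 h at 37 °C, detected with HRP-labeled secondary antibody and TMB, absorbance at 450 nm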
T2 construct: Bought recombinant protein; also called monkey GPC3 protein

monkey GPC3-His protein [3] = target: T2, monkey GPC3-His protein; assay: SPR, antibody captured on Protein A chip, monkey GPC3-His analyte;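 further: run at 25 °C with 240 s association and up to 600 s dissociation, double-referenced, kinetics fitted to a 1:1 Langmuir binding model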
human GPC3-His protein = target: T3, human GPC3-His protein (human, UniProt P51654 25-559); assay: SPR, antibody captured on Protein A chip, human GPC3-His analyte;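 further: measured at 25 °C flow cell, human GPC3-His injected at five concentrations up to 200 nM, 240 s association, up to 600 s dissociation, double-referenced, fitted to Langmuir 1:1 model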
T3 construct: also called human GPC3 protein; not shown: His tag

B3: F1.145.22 (antibody, human IgG1, kappa, V domains shown)
VH: QVQLQQSGTDLARPGASVKLSCKASGYTFTSFGISWVKQRTGQGLEWIGEIYPRSGSPYYNEKFTGKATLTADKSSSTAYMELRSLTSEDSAVYFCAKDFGSSYVFDYWGQGTALTVSS
VL: DIQMTQSPASLSASVGETVTITCRASENIYSYLTWYQQKQGKSPQLLVYNAKTLAEGVPSRFSGSGSGTQFSLKINSLQPEDFGTYYCQHHYGTPPTFGTGTKLDLKR
notes: Human-murine chimeric antibody
EC50 [1]: 0.69 nM
Max MFI [1]: 6050 MFI
OD450 at 0.0001 nM (monkey GPC3-His protein [2]): 0.05 OD450
OD450 at 0.001 nM (monkey GPC3-His protein [2]): 0.07 OD450
OD450 at 0.01 nM (monkey GPC3-His protein [2]): 0.25 OD450
OD450 at 0.1 nM (monkey GPC3-His protein [2]): 1.23 OD450
OD450 at 1 nM (monkey GPC3-His protein [2]): 2.17 OD450
OD450 at 10 nM (monkey GPC3-His protein [2]): 2.39 OD450
OD450 at 100 nM (monkey GPC3-His protein [2]): 2.4 OD450
Kd (monkey GPC3-His protein [3]): 0.525 nM
koff (monkey GPC3-His protein [3]): 0.000164 s⁻¹
kon (monkey GPC3-His protein [3]): 311000 M⁻¹ s⁻¹
Kd (human GPC3-His protein): 0.754 nM
koff (human GPC3-His protein): 0.000164 s⁻¹
kon (human GPC3-His protein): 218000 M⁻¹ s⁻¹

B5: F1.110.24 (antibody, human IgG1, kappa, V domains shown)
VH: EVKLVESGGGLVQPGGSLKLSCAASGFTFSDFYMYWVRQTPEKRLEWVAFISNGGGSTYYPDTVKGRFTISRDNVKNTLYLQMSRLKSEDTAMYYCARPDTSWFAYWGQGSLVTVSA
VL: DIQMTQTTSSLSASLGDRVTISCRASQDIDNYLNWYQQKPDGTVKVLISYTSRLHSGVPSRFSGSGSGTDYSLTISNLEQEDIATYFCQQGNTLPWTFGGGTKLEIKR
notes: as for B3
EC50 [1]: 0.42 nM
Max MFI [1]: 5560 MFI
OD450 at 0.0001 nM (monkey GPC3-His protein [2]): 0.05 OD450
OD450 at 0.001 nM (monkey GPC3-His protein [2]): 0.05 OD450
OD450 at 0.01 nM (monkey GPC3-His protein [2]): 0.06 OD450
OD450 at 0.1 nM (monkey GPC3-His protein [2]): 0.29 OD450
OD450 at 1 nM (monkey GPC3-His protein [2]): 0.31 OD450
OD450 at 10 nM (monkey GPC3-His protein [2]): 0.47 OD450
OD450 at 100 nM (monkey GPC3-His protein [2]): 0.41 OD450
Kd (monkey GPC3-His protein [3]): 1.38 nM
koff (monkey GPC3-His protein [3]): 0.000342 s⁻¹
kon (monkey GPC3-His protein [3]): 248000 M⁻¹ s⁻¹
Kd (human GPC3-His protein): 2.5 nM
koff (human GPC3-His protein): 0.000362 s⁻¹
kon (human GPC3-His protein): 145000 M⁻¹ s⁻¹

Continued, values first:

EC50 [1]: 1.94 nM
Max MFI [1]: 6480 MFI
OD450 at 0.0001 nM (monkey GPC3-His protein [2]): 0.05 OD450
OD450 at 0.001 nM (monkey GPC3-His protein [2]): 0.05 OD450
OD450 at 0.01 nM (monkey GPC3-His protein [2]): 0.1 OD450
OD450 at 0.1 nM (monkey GPC3-His protein [2]): 0.62 OD450
OD450 at 1 nM (monkey GPC3-His protein [2]): 1.33 OD450
OD450 at 10 nM (monkey GPC3-His protein [2]): 1.96 OD450
OD450 at 100 nM (monkey GPC3-His protein [2]): 1.96 OD450
Kd (monkey GPC3-His protein [3]): 0.183 nM
koff (monkey GPC3-His protein [3]): 2.88e-05 s⁻¹
kon (monkey GPC3-His protein [3]): 158000 M⁻¹ s⁻¹
Kd (human GPC3-His protein): 0.837 nM
koff (human GPC3-His protein): 7.03e-05 s⁻¹
kon (human GPC3-His protein): 84100 M⁻¹ s⁻¹
B1: F1.136.7 (antibody, human IgG1, kappa, V domains shown)
VH: EVQLQQSGPVMVKPGPSVKISCQTSGFTFTDYYIHWVKQSHGKSLEWIGLVFPYDGGTNYNQKFKDKATLTLDTSSSTAYMELNSLTSEDSAVYYCARAGGFSYALNYWGQGTSVTVSS
VL: DIQMTQSPSSLSASLGGKVTITCKASQDINNYIAWYQHKPGKGPRLLIHFTSTLQPGIPSRFSGSGSGRDYSFSISNLEPEDIATYYCLQYDNLLLTFGAGTKLELKR
notes: as for B3

EC50 [1]: 0.77 nM
Max MFI [1]: 5380 MFI
OD450 at 0.0001 nM (monkey GPC3-His protein [2]): 0.05 OD450
OD450 at 0.001 nM (monkey GPC3-His protein [2]): 0.06 OD450
OD450 at 0.01 nM (monkey GPC3-His protein [2]): 0.14 OD450
OD450 at 0.1 nM (monkey GPC3-His protein [2]): 0.77 OD450
OD450 at 1 nM (monkey GPC3-His protein [2]): 1.68 OD450
OD450 at 10 nM (monkey GPC3-His protein [2]): 2.15 OD450
OD450 at 100 nM (monkey GPC3-His protein [2]): 2.3 OD450
Kd (monkey GPC3-His protein [3]): 13 nM
koff (monkey GPC3-His protein [3]): 0.00306 s⁻¹
kon (monkey GPC3-His protein [3]): 236000 M⁻¹ s⁻¹
Kd (human GPC3-His protein): 21.3 nM
koff (human GPC3-His protein): 0.00278 s⁻¹
kon (human GPC3-His protein): 131000 M⁻¹ s⁻¹
B2: F1.57.21 (antibody, human IgG1, kappa, V domains shown)
VH: QVQLQQSGAELARPGASVKLSCKASGYTFTSYGISWVKQITGQGLEWIGEIYPRSESTYYNEKFKGKATLTADKSSSTAYMELRSLTSEDSAVYFCARDYGNIYSFAYWGQGTLVTVSA
VL: B3 VL with A25T, T34A, T85S, P96L, T100A, D105E
notes: as for B3

EC50 [1]: 0.25 nM
Max MFI [1]: 5540 MFI
OD450 at 0.0001 nM (monkey GPC3-His protein [2]): 0.07 OD450
OD450 at 0.001 nM (monkey GPC3-His protein [2]): 0.07 OD450
OD450 at 0.01 nM (monkey GPC3-His protein [2]): 0.26 OD450
OD450 at 0.1 nM (monkey GPC3-His protein [2]): 1.11 OD450
OD450 at 1 nM (monkey GPC3-His protein [2]): 1.91 OD450
OD450 at 10 nM (monkey GPC3-His protein [2]): 2.21 OD450
OD450 at 100 nM (monkey GPC3-His protein [2]): 2.14 OD450
Kd (monkey GPC3-His protein [3]): 4.44 nM
koff (monkey GPC3-His protein [3]): 0.000639 s⁻¹
kon (monkey GPC3-His protein [3]): 144000 M⁻¹ s⁻¹
Kd (human GPC3-His protein): 8.03 nM
koff (human GPC3-His protein): 0.000629 s⁻¹
kon (human GPC3-His protein): 78400 M⁻¹ s⁻¹
B4: F1.120.16 (antibody, human IgG1, kappa, V domains shown)
VH: EFQLQQSGPELVKPGASVKISCKASGYSFTDYNMNWVKQSNGKSLEWIGLIHPKFSVTSYNRKFKGKATLTVDQSSSTAYMQLNSLTSEDSAVYYCARWAGDYFDYWGQGTTLTVSS
VL: DIVLTQSPATLSVTPGDSVSLSCRASQSISNNLHWYQQKSHESPRLLIKYASQSISGIPSRFSGSGSGTDFTLTINSVETEDFGMYFCQQSNSWPQTFGGGTKLEIKR
notes: as for B3

EC50 [1]: 0.31 nM
Max MFI [1]: 3530 MFI
OD450 at 0.0001 nM (monkey GPC3-His protein [2]): 0.05 OD450
OD450 at 0.001 nM (monkey GPC3-His protein [2]): 0.1 OD450
OD450 at 0.01 nM (monkey GPC3-His protein [2]): 0.49 OD450
OD450 at 0.1 nM (monkey GPC3-His protein [2]): 1.76 OD450
OD450 at 1 nM (monkey GPC3-His protein [2]): 2.3 OD450
OD450 at 10 nM (monkey GPC3-His protein [2]): 2.54 OD450
OD450 at 100 nM (monkey GPC3-His protein [2]): 2.23 OD450
Kd (monkey GPC3-His protein [3]): 5.24 nM
koff (monkey GPC3-His protein [3]): 0.000434 s⁻¹
kon (monkey GPC3-His protein [3]): 82800 M⁻¹ s⁻¹
Kd (human GPC3-His protein): 7.77 nM
koff (human GPC3-His protein): 0.000443 s⁻¹
kon (human GPC3-His protein): 57000 M⁻¹ s⁻¹
B6: F2.55.11 (antibody, human IgG1, kappa, V domains shown)
VH: EVKLVESGGGLVKPGGSLKLSCAASGLTFSTCTMSWVRQTPAKRLEWVATISSGGGNTYYPDSVKGRFTISRDNARNTLYLQMSSLRSEDTAMYYCVRLYYDGSPYAMDYWGQGTSVTVSS
VL: B5 VL with D30S, Y32H, V46L, S49Y, G91D, N92S, T93K, L94P, W96P, G100S
notes: as for B3
